Blank lines part the entries; values can stand above or below the binder they belong to.
Experiments:
[1] = biological target: T1, human CD3 on cells (HPB-ALL cells, primary human T cells) (human, UniProt P07766 23-207); experiment: flow cytometry, HPB-ALL WT;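 note: binding read by flow cytometry as PE geometric mean fluorescence intensity on live single cells, dead cells excluded with SYTOX Green, only samples with at least 200 gated cells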
T1 construct: whole, on cells; only the epsilon chain is written
T1 sequence (P07766 23-207): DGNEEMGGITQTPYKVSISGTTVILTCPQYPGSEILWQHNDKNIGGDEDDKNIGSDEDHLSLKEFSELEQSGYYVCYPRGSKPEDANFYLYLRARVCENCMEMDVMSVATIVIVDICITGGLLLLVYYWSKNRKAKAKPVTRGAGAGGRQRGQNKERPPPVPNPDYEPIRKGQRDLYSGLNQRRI

[2] = biological target: T2, Biotinylated Human CD38 Protein, Avitag, His Tag (Acrobiosystems CD8-H82E7) (human, UniProt P28907 43-300, biotinylated); experiment: SPR, Fab as analyte, immobilised biotinylated human CD38;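 note: biacore T200 at 25 °C, single-cycle kinetics with Fab from 7.8 to 2000 nM, 3 min association then 5 min dissociation, fitted with a 1:1 Langmuir model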
T2 construct: bought protein; also called biotinylated recombinant human CD38 protein; human CD38-avi-his

binding result [1]: no binding (tested: 800 nM)
B1: Anti-CD3-UCP07-A1 IgG1LALA (antibody, V domains shown)
VH: EVQLVESGGGLVKPGGSLRLSCAASGFTFSDYAVNWVRQAPGKGLEWVGRIKSKNEGGTGYAAPVKGRFTISRDDSKNTLYLQMNSLKTEDTAVYYCAREPSYYRDGAADYWGQGTLVTVSS
VL: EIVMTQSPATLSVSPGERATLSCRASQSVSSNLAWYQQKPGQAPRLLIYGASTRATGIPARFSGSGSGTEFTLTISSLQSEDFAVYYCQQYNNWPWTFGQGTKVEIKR
notes: IgG1 LALA

Kd [2]: 1710 nM
B2: Anti-CD38-UCP02-B7 Fab (Fab, V domains shown)
VH: EVQLVESGGGLVKPGGSLRLSCAASGFSFNEAWMTWVRQAPGKGLEWVGRIKSYSDGGYTGYAAPVKGRFTISRDDSKNTLYLQMNSLKTEDTAVYYCARSPGIPYHYFDVWGQGTLVTVSS
VL: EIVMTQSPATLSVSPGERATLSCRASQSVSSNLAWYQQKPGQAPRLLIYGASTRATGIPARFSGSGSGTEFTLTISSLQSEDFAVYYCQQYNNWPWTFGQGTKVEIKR
notes: Fab

binding result [1]: no binding (tested: 800 nM)
B3: Anti-CD3-UCP05-H2 IgG1LALA (antibody, V domains shown)
VH: QVQLVQSGAEVKKPGSSVKVSCKASGGGFSHYALNWVRQAPGQGLEWMGGIIPLTGKTAYAQKFQGRVTITADESTSTAYMELSSLRSEDTAVYYCARKISSARDYWGQGTLVTVSS
VL: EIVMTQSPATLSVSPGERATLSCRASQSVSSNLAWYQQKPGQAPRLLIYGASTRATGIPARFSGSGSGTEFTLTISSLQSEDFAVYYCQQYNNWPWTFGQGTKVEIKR
notes: IgG1 LALA

binding result [1]: no binding (tested: 800 nM)
B4: Anti-CD3-UCP05-H1 IgG1LALA (antibody, V domains shown)
VH: EVQLLESGGGLVQPGGSLRLSCAASGFAFSNSAMSWVRQAPGKGLELVSAISTKGGKTLYADSVKGRFTISRDNSKNTLYLQMNSLRAEDTAVYYCARSSPYGFDYWGQGTLVTVSS
VL: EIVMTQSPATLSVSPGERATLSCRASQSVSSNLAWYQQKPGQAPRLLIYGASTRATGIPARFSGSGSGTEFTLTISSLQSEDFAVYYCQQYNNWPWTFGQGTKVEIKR
notes: IgG1 LALA

binding result [1]: no binding (tested: 800 nM)
B5: Anti-CD3-UCP06-A1 IgG1LALA (antibody, V domains shown)
VH: QVQLVQSGAEVKKPGSSVKVSCKASGGHFRGYGISWVRQAPGQGLEWMGEIIPLRGFTIYAQKFQGRVTITADESTSTAYMELSSLRSEDTAVYYCARGSYVDSSYYYYDGFDVWGQGTLVTVSS
VL: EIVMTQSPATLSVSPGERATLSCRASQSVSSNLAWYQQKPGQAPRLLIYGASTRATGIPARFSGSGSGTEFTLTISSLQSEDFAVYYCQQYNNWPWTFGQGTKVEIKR
notes: IgG1 LALA

binding result [1]: no binding (tested: 800 nM)
B6: Anti-CD3-UCP07-F2 IgG1LALA (antibody, V domains shown)
VH: QVQLVQSGAEVKKPGSSVKVSCKASGGKFNKYVIGWVRQAPGQGLEWMGGVIPLKGQSKYAQKFQGRVTITADESTSTAYMELSSLRSEDTAVYYCARGRYYGDYSWKFDYWGQGTLVTVSS
VL: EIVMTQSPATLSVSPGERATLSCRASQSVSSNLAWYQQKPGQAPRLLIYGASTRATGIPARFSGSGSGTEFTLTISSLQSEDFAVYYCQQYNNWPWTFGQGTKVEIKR
notes: IgG1 LALA

binding result [1]: no binding (tested: 800 nM)
B7: Anti-CD3-UCP07-E2 IgG1LALA (antibody, V domains shown)
VH: EVQLLESGGGLVQPGGSLRLSCAASGFPFSNYAMSWVRQAPGKGLEWVSAISRKGGFTEYADSVKGRFTISRDNSKNTLYLQMNSLRAEDTAVYYCARASYLGGFAYWGQGTLVTVSS
VL: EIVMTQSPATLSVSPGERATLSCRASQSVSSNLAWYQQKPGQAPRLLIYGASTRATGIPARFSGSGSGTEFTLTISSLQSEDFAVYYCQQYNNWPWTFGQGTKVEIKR
notes: IgG1 LALA

binding result [1]: no binding (tested: 800 nM)
B8: Anti-CD3-UCP02-D2 IgG1LALA (antibody, V domains shown)
VH: EVQLVESGGGLVKPGGSLRLSCAASGFTFNKAWMGWVRQAPGKGLEWVGRIKSVTDGGITVYAAPVKGRFTISRDDSKNTLYLQMNSLKTEDTAVYYCARVTARYYYFDNWGQGTLVTVSS
VL: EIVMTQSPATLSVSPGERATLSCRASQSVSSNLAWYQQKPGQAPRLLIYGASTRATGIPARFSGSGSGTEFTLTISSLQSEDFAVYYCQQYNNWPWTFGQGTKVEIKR
notes: IgG1 LALA

binding result [1]: no binding (tested: 800 nM)
B9: Anti-CD3-UCP07-A3 IgG1LALA (antibody, V domains shown)
VH: EVQLLESGGGLVQPGGSLRLSCAASGVSFREYVMAWVRQAPGKGLEWVSVISQYGGNTYYADSVKGRFTISRDNSKNTLYLQMNSLRAEDTAVYYCARSGGSVPFDYWGQGTLVTVSS
VL: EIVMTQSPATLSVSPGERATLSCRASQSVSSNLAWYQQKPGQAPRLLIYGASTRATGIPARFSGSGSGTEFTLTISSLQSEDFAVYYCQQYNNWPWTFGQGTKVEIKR
notes: IgG1 LALA

Kd [2]: 71.1 nM
B10: Anti-CD38-UCP02-A7 Fab (Fab, V domains shown)
VH: EVQLLESGGGLVQPGGSLRLSCAASGFTFSFYDMSWVRQAPGKGLEWVSTITLHGGDTYYADSVKGRFTISRDNSKNTLYLQMNSLRAEDTAVYYCARDPSYIYSTSGYFDYWGQGTLVTVSS
VL: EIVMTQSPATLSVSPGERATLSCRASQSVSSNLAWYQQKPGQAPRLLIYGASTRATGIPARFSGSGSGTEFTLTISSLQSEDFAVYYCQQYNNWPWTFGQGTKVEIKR
notes: Fab

binding result [1]: no binding (tested: 800 nM)
B11: Anti-CD3-UCP07-C3 IgG1LALA (antibody, V domains shown)
VH: QVQLVQSGAEVKKPGSSVKVSCKASGGSFSRYAIGWVRQAPGQGLEWMGGIIPDVGIAFYAQKFQGRVTITADESTSTAYMELSSLRSEDTAVYYCAREYHYVGAFDIWGQGTLVTVSS
VL: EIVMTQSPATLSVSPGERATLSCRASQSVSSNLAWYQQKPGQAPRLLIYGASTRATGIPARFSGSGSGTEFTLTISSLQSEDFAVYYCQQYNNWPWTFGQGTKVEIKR
notes: IgG1 LALA

binding result [1]: no binding (tested: 800 nM)
B12: Anti-CD3-UCP07-B3 IgG1LALA (antibody, V domains shown)
VH: EVQLVESGGGLVKPGGSLRLSCAASGFDFNAAWMTWVRQAPGKGLEWVGRIKSEKNGGKSVYAAPVKGRFTISRDDSKNTLYLQMNSLKTEDTAVYYCARGGRLSSYFDPWGQGTLVTVSS
VL: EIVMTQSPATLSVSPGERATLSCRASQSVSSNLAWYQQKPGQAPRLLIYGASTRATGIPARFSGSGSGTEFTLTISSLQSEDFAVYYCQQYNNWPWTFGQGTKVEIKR
notes: IgG1 LALA

Kd [2]: 595 nM
B13: Anti-CD38-UCP02-B1 Fab (Fab, V domains shown)
VH: QVQLVQSGAEVKKPGSSVKVSCKASGGQFSFYAINWVRQAPGQGLEWMGEIIPDYGVTHYAQKFQGRVTITADESTSTAYMELSSLRSEDTAVYYCARWSYTYGIRYYYKLFDPWGQGTLVTVSS
VL: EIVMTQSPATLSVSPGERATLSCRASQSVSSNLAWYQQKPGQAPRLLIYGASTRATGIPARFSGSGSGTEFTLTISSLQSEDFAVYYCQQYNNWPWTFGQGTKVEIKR
notes: Fab

Kd [2]: 0.03 nM
B14: Anti-CD38-UCP02-E5 Fab (Fab, V domains shown)
VH: QVQLVQSGAEVKKPGSSVKVSCKASGGGFRHYFISWVRQAPGQGLEWMGGIIPAAATPYYAQKFQGRVTITADESTSTAYMELSSLRSEDTAVYYCARGYWHWFDYWGQGTLVTVSS
VL: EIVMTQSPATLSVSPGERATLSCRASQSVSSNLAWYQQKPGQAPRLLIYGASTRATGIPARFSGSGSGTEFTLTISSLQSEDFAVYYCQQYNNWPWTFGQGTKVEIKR
notes: Fab

binding result [1]: no binding (tested: 800 nM)
B15: Anti-CD3-UCP05-F1 IgG1LALA (antibody, V domains shown)
VH: EVQLLESGGGLVQPGGSLRLSCAASGFTFRHYAMTWVRQAPGKGLEWVSAITQRGGYTYYADSVKGRFTISRDNSKNTLYLQMNSLRAEDTAVYYCARAGPSGGGFDYWGQGTLVTVSS
VL: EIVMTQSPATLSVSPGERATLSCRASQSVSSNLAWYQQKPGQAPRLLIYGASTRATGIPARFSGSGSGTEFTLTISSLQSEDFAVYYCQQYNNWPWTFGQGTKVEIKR
notes: IgG1 LALA

binding result [1]: no binding (tested: 800 nM)
B16: Anti-CD3-UCP07-D1 IgG1LALA (antibody, V domains shown)
VH: EVQLLESGGGLVQPGGSLRLSCAASGFNFNINVMSWVRQAPGKGLEWVSAISQSGGYTLYADSVKGRFTISRDNSKNTLYLQMNSLRAEDTAVYYCARASPYGGGFDYWGQGTLVTVSS
VL: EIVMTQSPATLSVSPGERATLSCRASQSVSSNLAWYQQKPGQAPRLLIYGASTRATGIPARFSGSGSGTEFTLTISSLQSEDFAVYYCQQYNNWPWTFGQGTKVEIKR
notes: IgG1 LALA

binding result [1]: no binding (tested: 800 nM)
B17: Anti-CD3-UCP05-A2 IgG1LALA (antibody, V domains shown)
VH: EVQLLESGGGLVQPGGSLRLSCAASGFSFKIYAMGWVRQAPGKGLEWVSAITQQGGATVYADSVKGRFTISRDNSKNTLYLQMNSLRAEDTAVYYCARPGDLGGGFDIWGQGTLVTVSS
VL: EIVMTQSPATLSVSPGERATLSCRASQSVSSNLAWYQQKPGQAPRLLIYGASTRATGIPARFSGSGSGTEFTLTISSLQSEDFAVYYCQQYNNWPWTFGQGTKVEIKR
notes: IgG1 LALA

binding result [1]: no binding (tested: 800 nM)
B18: Anti-CD3-UCP05-C1 IgG1LALA (antibody, V domains shown)
VH: QVQLVQSGAEVKKPGSSVKVSCKASGGRFSRQALTWVRQAPGQGLEWMGGIIPDHGRPIYAQKFQGRVTITADESTSTAYMELSSLRSEDTAVYYCARGKGGSVAGWKFDVWGQGTLVTVSS
VL: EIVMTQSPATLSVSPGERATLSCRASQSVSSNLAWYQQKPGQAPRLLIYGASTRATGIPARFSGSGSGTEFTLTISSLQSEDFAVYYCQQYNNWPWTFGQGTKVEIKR
notes: IgG1 LALA

Kd [2]: 389 nM
B19: Anti-CD38-UCP02-F6 Fab (Fab, V domains shown)
VH: EVQLLESGGGLVQPGGSLRLSCAASGFTFSFYDMSWVRQAPGKGLEWVSAVSLYGDETYYADSVKGRFTISRDNSKNTLYLQMNSLRAEDTAVYYCAREPVSYDYYGSYFDYWGQGTLVTVSS
VL: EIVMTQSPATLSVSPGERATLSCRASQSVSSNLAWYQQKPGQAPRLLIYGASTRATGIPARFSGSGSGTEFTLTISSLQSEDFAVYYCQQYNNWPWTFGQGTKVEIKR
notes: Fab

binding result [1]: no binding (tested: 800 nM)
B20: Anti-CD3-UCP05-G2 IgG1LALA (antibody, V domains shown)
VH: QVQLVQSGAEVKKPGSSVKVSCKASGGVFNFYAISWVRQAPGQGLEWMGGITPDGGFVKYAQKFQGRVTITADESTSTAYMELSSLRSEDTAVYYCARSPVSLYYGKYYVYYGAFDVWGQGTLVTVSS
VL: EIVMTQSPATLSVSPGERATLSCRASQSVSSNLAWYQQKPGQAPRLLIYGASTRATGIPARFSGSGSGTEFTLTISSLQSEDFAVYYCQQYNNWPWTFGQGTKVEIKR
notes: IgG1 LALA

binding result [1]: no binding (tested: 800 nM)
B21: Anti-CD3-UCP07-E1 IgG1LALA (antibody, V domains shown)
VH: EVQLLESGGGLVQPGGSLRLSCAASGFTFSRNAMNWVRQAPGKGLEWVSSISRIGGFTIYADSVKGRFTISRDNSKNTLYLQMNSLRAEDTAVYYCARVGSGGKAFDVWGQGTLVTVSS
VL: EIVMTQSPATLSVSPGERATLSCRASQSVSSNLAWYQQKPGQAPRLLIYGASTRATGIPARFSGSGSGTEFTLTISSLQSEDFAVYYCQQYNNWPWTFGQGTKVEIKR
notes: IgG1 LALA

binding result [1]: no binding (tested: 800 nM)
B22: Anti-CD3-UCP05-D2 IgG1LALA (antibody, V domains shown)
VH: EVQLLESGGGLVQPGGSLRLSCAASGFTFNIYALGWVRQAPGKGLEWVSAISQNGGYTLYADSVKGRFTISRDNSKNTLYLQMNSLRAEDTAVYYCARLRGGSGMDVWGQGTLVTVSS
VL: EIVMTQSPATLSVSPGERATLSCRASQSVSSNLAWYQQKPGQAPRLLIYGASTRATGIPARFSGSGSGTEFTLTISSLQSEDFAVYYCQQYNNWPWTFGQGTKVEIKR
notes: IgG1 LALA

From patent publication US20240132615A1 (ICHNOS SCIENCES, published 2024)
